We go through 31 sequences from the supplement of paper PMC9170038.

The test system of data set [1] is MS2 coat protein. Put plainly: apparent KD of MS2 coat protein; higher = weaker reporter binding. Particulars: Eterna round: R101. How it is done: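 RNA-MaP: designed FMN/MS2 RNA switches (84 nt design region) are transcribed on-chip within common flanks and titrated with SNAP-549-labelled MS2 coat protein (about 1-3000 nM) in 100 mM Tris pH 7.5, 80 mM KCl, 4 mM MgCl2, without or with 200 uM FMN. Median apparent KD per design; activation ratio = KD,OFF / KD,ON.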

In data set [2] the test system is MS2 coat protein. Put plainly: apparent KD of MS2 coat protein, switch ON state; designed switch direction (-1 OFF switch, 1 ON switch): 1; higher = weaker reporter binding. Particulars: FMN input: 0 or 200 uM; Eterna round: R93 (includes R88 designs). The essentials:
(§1)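 Designed RNA switches were transcribed on-chip from Illumina sequencing clusters and titrated with SNAP-549-labelled MS2 coat protein in twofold steps from 0.7 or 1.5 nM up to 3 µM. Each step lasted 0.8–1.5 h at first and 10–20 min by the end, in 100 mM Tris-HCl pH 7.5, 80 mM KCl and 4 mM MgCl2, without or with constant ligand. Apparent KD is the median, for each design, of fits to normalised cluster binding curves.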

The test system of data set [3] is MS2 coat protein. The experiment in a line: apparent KD of MS2 coat protein, switch OFF state (with FMN for OFF switches, without FMN for ON switches); designed switch direction (-1 OFF switch, 1 ON switch): 1; higher = weaker reporter binding. The following applies: FMN input: 0 or 200 uM; Eterna round: R93 (includes R88 designs). Put shortly: as §1

“AAAAAUUCUUAAGGAUAUGACUCCGAAACGGAGUCAGAAGGUGAGGAUCACCCACCUAGCUCAGCGUCGAAAGACGCUGAGCAA [#SharedSequence ExNG1 - 28] (puzzle (switch architecture): Exclusion NG 1)”: the “apparent KD of MS2 coat protein” value worked out at 12 nM in data set [1] (input ligand: FMN 200 uM) and 10.9 nM in data set [1] (input ligand: none).

With “AAAUAAACUCAAGGAUAUCAGUGGCAAAGCCACUGAGAAGGUGAGGAUCACCCACCUAAGAUCACAGGUGACGAAAGUCACCUG [#SharedSequence ExNG1 - 37] (puzzle (switch architecture): Exclusion NG 1)”, the “apparent KD of MS2 coat protein” value worked out at 17.6 nM in data set [1] (input ligand: FMN 200 uM) and 11.2 nM in data set [1] (input ligand: none).

Regarding “AAAUAAAUUGAAGGAUAUGACCCUCGAGGUGACUAAAAGUCACCUCGAGGGUCAGAAGGUCGAGGAUCACCCGAUCUAAAUAAA [#SharedSequence SLExNG1: 1-1] (puzzle (switch architecture): Small Loop Exclusion NG 1)”, the “apparent KD of MS2 coat protein” value in data set [1] (input ligand: FMN 200 uM) worked out at 13.1 nM; in data set [1] (input ligand: none), 8.27 nM.

In the case of “AAAUAACUUGAAGGAUAUGACCCUCGAGGUGACUAAAAGUCACCUCGAGGGUCAGAAGGUCGAGGAUCACCCGACCAAGUGAAA [#SharedSequence SLExNG1: 9] (puzzle (switch architecture): Small Loop Exclusion NG 1)”, the “apparent KD of MS2 coat protein” value in data set [1] (input ligand: FMN 200 uM) came out at 13.3 nM; in data set [1] (input ligand: none), 9.17 nM.

For the sequence “AAAUGAUAUCAGAAGGGCUCCAGCAAAGCUGGAGCAGGAUAUGAGGAUCACCCAUAUCACCUGACGGUCGAAACGACCGUCAGG [#SharedSequence - IExNG1: 7-1] (puzzle (switch architecture): Inverted Exclusion NG 1)”, the “apparent KD of MS2 coat protein” value in data set [1] (input ligand: FMN 200 uM) turned out to be 62.1 nM; in data set [1] (input ligand: none), 15.5 nM.

Regarding “AAGUGAAAUCAGAAGGGCUCCAGCAAAGCUGGAGCAGGAUAUGAGGAUCACCCAUAUCACCUGACGGUCGAAACGACCGUCAGG [#SharedSequence - IExNG1: 5-1] (puzzle (switch architecture): Inverted Exclusion NG 1)”, the “apparent KD of MS2 coat protein” value in data set [1] (input ligand: FMN 200 uM) was determined as 147 nM; in data set [1] (input ligand: none), 21.2 nM.

With “AAUAAAACUCAAGGAUAUCAGUGGCAAAGCCACUGAGAAGGUGAGGAUCACCCACCUACGUGACGCUGGAAACAGCGUCACGAA [#SharedSequence ExNG1 - 33] (puzzle (switch architecture): Exclusion NG 1)”, the “apparent KD of MS2 coat protein” value in data set [1] (input ligand: FMN 200 uM) was determined as 36.3 nM; in data set [1] (input ligand: none), 15.8 nM.

On to “AAUAAACAAUAAAAGAGUCCACGAAACUUCUGAGGAUCACCCAGAAGGGCUGAGGUAAUACCUCAGCAGGAUAUGGACGUGGAC [#SharedSequence IExNG# - 1] (puzzle (switch architecture): Inverted Exclusion NG 3)”, for which the “apparent KD of MS2 coat protein” value in data set [1] (input ligand: FMN 200 uM) came out at 5.09 nM; in data set [1] (input ligand: none), 5 nM.

As for “AGAAACUACGAGAAGGACAUGUGGUCCUUCAAAAAAAUGAGGAUCACCCAUGUAGGAUAUCGUAGUUUCAGGAUCGUGAGAUCA [salish99_ISLExNG1_x101 #HINGE] (puzzle (switch architecture): Inverted Small Loop Exclusion NG 1)”, the “apparent KD of MS2 coat protein” value in data set [1] (input ligand: FMN 200 uM) is 9.58 nM; in data set [1] (input ligand: none), 30 nM.

On to “CGCUAUGAUGGUUGUAAUAGAGCAUAGGAUAUGCUUGUACAUGAGGAUCACCCAUGUUAUAUUUUGCAGAAGGGUGCAUUUGCG [JR #DistanceFar #Hairpin #NP SLSSNG3 Sub073] (puzzle (switch architecture): Small Loop Same State NG 3)”, for which the “apparent KD of MS2 coat protein” value stood at 30.1 nM in data set [1] (input ligand: FMN 200 uM) and 59.9 nM in data set [1] (input ligand: none).

“CUAUUAUAUGUAGGAUAUGCAUAUUAUUAUUGUGCAGAAGGACAUGAGGAUCACCCAUGUAUAUUAUUAUUAUAUAUUAUAUAU (puzzle (switch architecture): Exclusion NG 1)”: the “apparent KD of MS2 coat protein” value in data set [1] (input ligand: FMN 200 uM) is 11.8 nM; in data set [1] (input ligand: none), 16.5 nM.

As for “GGAGACCUUACAGGAUAUGCUGGACUUUGUCCAGCAGAAGGGUGAAUACAUGAGGAUCACCCAUGUAUGGUCUCCAAAUUUAAU [jl-ssng1-3.05 #GC_VS_GU_SWITCHING] (puzzle (switch architecture): Same State NG 1)”, the figures for the “apparent KD of MS2 coat protein” value in data set [1] (input ligand: FMN 200 uM) and in data set [1] (input ligand: none) were 121 nM and 52.2 nM, respectively.

With “GGAGAUACAUGAGGAUCACCCAUGUAGGAUAUCGGGCCCAUACCCGGCGAAAGCCGGGUAUGGGCCGAGAAGGGCGUACACACC [#LOL-5] (puzzle (switch architecture): Small Loop Exclusion NG 3)”, the figures for the “apparent KD of MS2 coat protein” value in data set [1] (input ligand: FMN 200 uM) and in data set [1] (input ligand: none) were 7.47 nM and 8.26 nM, respectively.

In the case of “GGAGGAGGAUAAGGAUAUAACAUGAGGAUCACCCAUGUGGAGGAGGAGGAGGAGGAGGAGGAGGGUUAGAAGGUAUGGAGGAGG [First attempt] (puzzle (switch architecture): Exclusion NG 2)”, the “apparent KD of MS2 coat protein” value was 11 nM in data set [1] (input ligand: FMN 200 uM) and 16.2 nM in data set [1] (input ligand: none).

Turning to “GGGUACAUCGGAGGAUAUCAUGUAAAUACAUGAGGAUCACCCAUGUCGAUGGAGACAUAGGAGAUUGAGAAGGCCGAUGUACCG (puzzle (switch architecture): Same State NG 2)”, the results for the “apparent KD of MS2 coat protein” value in data set [1] (input ligand: FMN 200 uM) and in data set [1] (input ligand: none) were 144 nM and 74 nM, respectively.

As to “UAAAAUAAAACAUAGGAUAUCAAAAUAAAAACAUGAGGAUCACCCAUGUGAAAACAUGAGAAGGAUGAGAAGGAAAAUAAAAUAA [Meechl SS2 R2 m1]”, the “apparent KD of MS2 coat protein” value in data set [2] worked out at 25.7 nM; in data set [3], 51.6 nM.

As to “UAACAACAUGAGGAUCACCCAUGUCAAACAAAUCGAGGAUAUGGGCAGGAUUCUUCCUAUCUAGAAGGCGAAAACA [Ricexebi]”, the “apparent KD of MS2 coat protein” value in data set [2] was 145 nM; in data set [3], 83.2 nM.

“UAAGACGUGCAUCAGGAUAUGUUCCGAGGCACAUGAGGAUCACCCAUGUGGACGAAGCCUCGGGCACAGAAGGGAUCACUCAGAC [Laarma]”: the entries for the “apparent KD of MS2 coat protein” value in data set [2] and in data set [3] were 17.2 nM and 20.4 nM, respectively.

Regarding “UAGAGACAUGAGGAUCACCCAUGUAGGAUUAUGGGAGGAUAUACAAAGACGAGAGUCAGAGUAGAAGGCCUAGGAA [salish99-ss1-133(!)]”, the “apparent KD of MS2 coat protein” value in data set [2] is 24.9 nM; in data set [3] it was 74.6 nM.

As to “UAGAGACAUGAGGAUCACCCAUGUAGGAUUAUGGGAGGAUAUACAAAGACGAGAGUCAGAGUAGAAGGCCUAGGAG [salish99-ss1-135(!)]”, the results for the “apparent KD of MS2 coat protein” value in data set [2] and in data set [3] were 22 nM and 64.9 nM, respectively.

Turning to “UAUAAACAUGAGGAUCACCCAUGUAGAAAUAUGGGAGGAUAUACAAAGACGAAAGUCAAAGUAGAAGGCCUAAUAU [Mat - Same State 1 - Mod - D155]”, the “apparent KD of MS2 coat protein” value was 18.9 nM in data set [2] and 55.3 nM in data set [3].

For “UCAAAACAUGAGGAUCACCCAUGUAGCCUAAAGCGAGGAUAUGGGUUUCUUUAAAGAGUACCAGAAGGCGCCAAAA [Enenala]”, the “apparent KD of MS2 coat protein” value came out at 27.9 nM in data set [2] and 91.1 nM in data set [3].

For the sequence “UCAAAACAUGAGGAUCACCCAUGUAGUCUAAAGCGAGGAUAUGGGUUUCUUUAAAGAGUACCAGAAGGCGCCAAAA [Entibi]”, the figures for the “apparent KD of MS2 coat protein” value in data set [2] and in data set [3] were 23.3 nM and 60.9 nM, respectively.

With “UCAGAACCGACAAAGGAUAUAGCGGGUGAGACAUGAGGAUCACCCAUGUAUGCAGAACUCAUCCUCUAGAAGGUUGAGACGGAUA [Maedanon]”, the entries for the “apparent KD of MS2 coat protein” value in data set [2] and in data set [3] were 213 nM and 93.6 nM, respectively.

As for “UCCACCAUGGUACAGGAUAUGUCAGACCCGACAUGAGGAUCACCCAUGUGCGGUUCUUUUCCAACGCAGAAGGGUGCAUAGGUGG [Xevetia]”, the “apparent KD of MS2 coat protein” value amounted to 17.1 nM in data set [2] and 43.9 nM in data set [3].

In the case of “UGCUAACUGUAGAAGGGUGACAUGAGGAUCACCCAUGUGCACGCGCGCUUUACGGCGCGCGUGCCACAGGAUAUACAGUUGAGU [Erora] (puzzle (switch architecture): Inverted Same State NG 2)”, the entries for the “apparent KD of MS2 coat protein” value in data set [1] (input ligand: FMN 200 uM) and in data set [1] (input ligand: none) were 55.1 nM and 43.1 nM, respectively.

Regarding “UGGAAGGAGAGAGAGGAUAUCCAAAGGAAAACAUGAGGAUCACCCAUGUAGAAGGUAGGAAAUUGGGAGAAGGCUCAAGAGAGAG [salish99-ss2-117]”, the figures for the “apparent KD of MS2 coat protein” value in data set [2] and in data set [3] were 17 nM and 27.5 nM, respectively.

For the sequence “UGGAGACAUGAGGAUCACCCAUGUGAGAAGAGGCGAGGAUAUCGAAAGAAAGAAGAGAAACGAGAAGGCGCGAGCA [salish99-SS1-040]”, the “apparent KD of MS2 coat protein” value in data set [2] is 25.9 nM; in data set [3], 40.2 nM.

Regarding “UGGUACAUGGGAGGAUAUGGGUUGAUAACAUGAGGAUCACCCAUGUUAAAUAAGCCGAGAGGCUACUAGAAGGCCCAUGUACCU [#InverseDoubleMagnetSystem - JL SNG1 3.00 18] (puzzle (switch architecture): Same State NG 2)”, the “apparent KD of MS2 coat protein” value stood at 10.6 nM in data set [1] (input ligand: FMN 200 uM) and 293 nM in data set [1] (input ligand: none).

As to “UGUUCGAGUAGUGAGGAUAUUCAUGGGCCCACAUGAGGAUCACCCAUGUAAUGGACCGGGCCGAAGGAGAAGGCGCGUAAAAUUA [Atceve]”, the figures for the “apparent KD of MS2 coat protein” value in data set [2] and in data set [3] were 38.2 nM and 140 nM, respectively.

As for “UUCUCCACUAGCAAGGAUAUCUAAAACUAAACAUGAGGAUCACCCAUGUGACGACCACACGUAUCAGAGAAGGUGCAGGGUGUAU [JR_SS002_Sub308]”, the figures for the “apparent KD of MS2 coat protein” value in data set [2] and in data set [3] were 45.4 nM and 42.5 nM, respectively.
